The source of these data is paper PMC8101287 (2020).

The term Kd denotes a measure of binding affinity in units of concentration. Read a high Kd as weaker binding.

“And” between values parts separate entries of the source, which are not always exact repeats. Equal values may be shown once. Read-outs that look alike come from different tables or passages of the source.

The target of assay [1] is T1, HLA‐DR1 (HLA‐DRA1*01:01/HLA‐DRB*01:01) complexed with the HA_(306‐318) peptide, refolded from E. coli (human | ). The assay can be described thus: SPR.
For assay [2], the target named is T1, HLA‐DR1 (HLA‐DRA1*01:01/HLA‐DRB*01:01) …. The assay can be described thus: SPR. The source holds these as a separate data set. (In general: SPR reads the build-up and loss of mass on a sensor chip optically.)

B1: LAG‐3:Fc fusion protein (four extracellular domains of LAG‐3 and the Fc domain of IgG) (Fc fusion)
chain: LQPGAEVPVVWAQEGAPAQLPCSPTIPLQDLSLLRRAGVTWQHQPDSGPPAAAPGHPLAPGPHPAAPSSWGPRPRRYTVLSVGPGGLRSGRLPLQPRVQLDERGRQRGDFSLWLRPARRADAGEYRAAVHLRDRALSCRLRLRLGQASMTASPPGSLRASDWVILNCSFSRPDRPASVHWFRNRGQGRVPVRESPHHHLAESFLFLPQVSPMDSGPWGCILTYRDGFNVSIMYNLTVLGLEPPTPLTVYAGAGSRVGLPCRLPAGVGTRSFLTAKWTPPGGGPDLLVTGDNGDFTLRLEDVSQAQAGTYTCHIHLQEQQLNATVTLAIITVTPKSFGSPGSLGKLLCEVTPVSGQERFVWSSLDTPSQRSFSGPWLEAQEAQLLSQPWQCQLYQGERLLGAAVYFTELSSPGAQRSGRAPGALPAGHL
As for B1, the Kd is 7300 nM in assay [1]; 3000 nM and 1000 nM in assay [2].
